Earlier results on one substance are cited in article PMC8777194.

The data set addresses Leader protein L L (Encephalomyocarditis virus) (UniProt P03304).

What is called Kd is the concentration at which binding is half-saturated. For the substance 2A protein 2A (from UniProt P03304), the Kd is 1500 nM.
